Laboratory results reported in patent CN112409487A (NINGBO SAIPO BIOTECHNOLOGY CO LTD, dated 2021).

Molecular target: T1, 人可溶性转铁蛋白受体校准品 (human, UniProt P02786 101-760, limits assumed)
T1 construct: also called sTfR校准品
Experiment: double-antibody sandwich latex immunoturbidimetry on the calibrator, OD570nm

T1 sequence (P02786 101-760 limits assumed): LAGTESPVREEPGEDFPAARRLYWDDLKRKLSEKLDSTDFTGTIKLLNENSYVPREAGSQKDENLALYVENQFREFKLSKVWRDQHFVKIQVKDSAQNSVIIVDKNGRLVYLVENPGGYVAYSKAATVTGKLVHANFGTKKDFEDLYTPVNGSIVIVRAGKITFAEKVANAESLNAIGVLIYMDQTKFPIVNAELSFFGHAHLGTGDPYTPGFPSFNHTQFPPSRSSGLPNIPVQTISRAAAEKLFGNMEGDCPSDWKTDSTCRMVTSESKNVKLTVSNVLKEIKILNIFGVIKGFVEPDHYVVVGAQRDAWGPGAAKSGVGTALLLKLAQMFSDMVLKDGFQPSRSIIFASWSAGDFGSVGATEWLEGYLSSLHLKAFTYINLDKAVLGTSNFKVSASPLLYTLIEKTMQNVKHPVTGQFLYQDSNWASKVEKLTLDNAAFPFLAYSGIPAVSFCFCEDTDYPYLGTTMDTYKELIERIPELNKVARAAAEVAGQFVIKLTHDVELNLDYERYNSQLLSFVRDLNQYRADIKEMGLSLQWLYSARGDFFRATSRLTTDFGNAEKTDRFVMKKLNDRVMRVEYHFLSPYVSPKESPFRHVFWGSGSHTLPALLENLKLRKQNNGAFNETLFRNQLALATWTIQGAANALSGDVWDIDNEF

B1: 鼠单克隆抗体8E11 (antibody, V domains shown)
VH: QVQLQQSGAELVRPGTSVKISCKASGYAFTNYWLGWVKQRPGRGLEWIGDIFPGSSNTYYNEKFKGKASLTADKSSSTAYMHLSSLTSEDSAVYFCARVKDYYAMGYWGQGTSVTVSS
VL: ENVLTQSPAIMSASPGEKVTMTCSASSSVSYMNWYQQKSITSPKLWIYDTFKLASGVPGRFSGSGSGNSYSLTISSMEAEDVATYYCFQGSGYPYTFGGGTKLEIK
notes: Mouse hybridoma monoclonal antibody, purified from ascites on protein G and detected with goat anti-mouse IgG; It was coupled to latex particles in the turbidimetric assay; also called 第一单克隆抗体
  binding result: binds
